Experimental findings from patent publication US20060246004A1 (Genentech, published 2006) are described below.

Test [1] deals with human FcRn (human) (UniProt P55899). Description: BIAcore equilibrium analysis, FcRn immobilised on CM5 chip, pH 6.0.
For test [2] the target is unchanged. Description: BIAcore, FcRn immobilised, pH 6.0. A general note: SPR reads the build-up and loss of mass on a sensor chip optically.
The next test has as its target rat FcRn (rat) (UniProt P13599). Description: BIAcore, FcRn immobilised.
Test [3] has as its target T1, human CD20 on WIL2-S cells (human, UniProt P11836 1-297).
T1 construct: whole, on cells; also called CD20 antigen; hCD20
T1 sequence (looked up): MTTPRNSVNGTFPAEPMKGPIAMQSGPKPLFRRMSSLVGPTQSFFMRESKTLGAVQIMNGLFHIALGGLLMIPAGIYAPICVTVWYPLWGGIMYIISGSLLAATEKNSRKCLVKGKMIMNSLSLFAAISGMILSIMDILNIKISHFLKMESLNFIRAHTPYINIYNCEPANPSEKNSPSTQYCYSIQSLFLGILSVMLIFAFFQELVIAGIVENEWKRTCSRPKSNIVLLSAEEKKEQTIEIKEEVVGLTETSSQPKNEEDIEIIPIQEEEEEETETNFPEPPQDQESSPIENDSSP
Description: competitive Scatchard analysis, WIL2-S cells; labelled 125I-2H7.v511; ± standard error of fit.
Description: (§1) All dilutions were performed in binding assay buffer (DMEM media containing 0.5% bovine serum albumin, 25 mM HEPES pH 7.2, and 0.01% sodium azide). […] Serial dilutions (0.05 mL) of unlabelled antibody were added and mixed. 30,000 WIL2-S cells in a volume of 0.05 mL was added to each well. The plates were sealed and incubated at room temperature for 24 h, then centrifuged for 15 min at 2,500 RPM. The supernatant was then aspirated and the cell pellets were washed and centrifuged. The supernatant was again aspirated, and the pellets were dissolved in 1N NaOH and transferred to tubes for gamma counting.

The target in a further test is T2, soluble CD20 (Genentech) (UniProt P11836 1-297, limits assumed).
T2 construct: Coated on ELISA plates; also called solubilized CD20
T2 sequence (looked up): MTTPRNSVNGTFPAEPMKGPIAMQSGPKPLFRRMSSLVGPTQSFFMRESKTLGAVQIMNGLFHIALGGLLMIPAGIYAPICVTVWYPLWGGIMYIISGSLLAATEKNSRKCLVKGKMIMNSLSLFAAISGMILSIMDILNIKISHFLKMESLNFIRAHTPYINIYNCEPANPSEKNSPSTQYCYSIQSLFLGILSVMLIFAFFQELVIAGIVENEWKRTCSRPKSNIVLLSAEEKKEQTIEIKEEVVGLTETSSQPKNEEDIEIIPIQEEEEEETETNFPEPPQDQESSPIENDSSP
Description: ELISA on plate-coated soluble CD20, bound IgG detected with HRP anti-human Fab, OD450. For orientation: An ELISA detects its analyte on a solid surface through an enzyme-linked reagent.

Test [4] addresses T1, human CD20 on WIL2-S cells. Description: competitive Scatchard analysis, WIL2-S cells; labelled competitor 125I-2H7.v138; ± standard error of fit.
Description: as §1
Test [5] addresses T1, human CD20 on WIL2-S cells. Description: cell-based ELISA, WIL2-S cells; conc. 2H7.v16 / conc. variant.
Description: To measure relative binding affinities to the CD20 antigen, a cell-based ELISA assay was developed. […] The cells were washed with PBS containing 1% FBS (assay buffer) and seeded at 250-300,000 cell/well in 96-well round bottom plates (Nunc, Roskilde, Denmark). […] The plates were buried in ice and incubated for 45 min. To remove the unbound antibody, 0.1 mL assay buffer were added to the wells. Plates were centrifuged and supernatants were removed. Cells were washed two more times with 0.2 mL assay buffer. Antibody bound to the plates was detected by adding peroxidase conjugated goat anti-human Fc antibody (Jackson ImmunoResearch, West Grove, Pa.) to the plates. After a 45 min incubation, cells were washed as described before. TMB substrate (3,3′,5,5′-tetramethyl benzidine; Kirkegaard & Perry Laboratories, Gaithersburg, Md.) was added to the plates. The reaction was stopped by adding 1 M phosphoric acid. Titration curves were fit with a four-parameter nonlinear regression curve-fitting program (KaleidaGraph, Synergy software, Reading, Pa.). The absorbance at the midpoint of the titration curve (mid-OD) and its corresponding concentration of the standard were determined. Then the concentration of each variant at this mid-OD was determined, and the concentration of the standard was divided by that of each variant.

human FcRn (human), sequence (P55899 24-297 limits assumed, chain 1 of 2): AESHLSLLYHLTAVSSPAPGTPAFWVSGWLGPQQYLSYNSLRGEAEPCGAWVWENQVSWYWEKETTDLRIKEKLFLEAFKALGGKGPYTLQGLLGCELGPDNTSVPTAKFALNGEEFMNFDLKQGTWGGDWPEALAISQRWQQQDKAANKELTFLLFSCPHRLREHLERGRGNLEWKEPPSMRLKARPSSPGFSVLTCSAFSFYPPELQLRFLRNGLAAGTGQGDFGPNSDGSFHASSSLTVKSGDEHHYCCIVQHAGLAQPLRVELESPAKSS
human FcRn (human), sequence (chain, as listed by the source limits assumed, chain 2 of 2): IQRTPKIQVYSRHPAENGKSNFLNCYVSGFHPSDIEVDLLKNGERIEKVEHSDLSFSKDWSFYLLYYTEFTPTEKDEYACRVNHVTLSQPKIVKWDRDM
rat FcRn (rat), sequence (P13599 23-298 limits assumed): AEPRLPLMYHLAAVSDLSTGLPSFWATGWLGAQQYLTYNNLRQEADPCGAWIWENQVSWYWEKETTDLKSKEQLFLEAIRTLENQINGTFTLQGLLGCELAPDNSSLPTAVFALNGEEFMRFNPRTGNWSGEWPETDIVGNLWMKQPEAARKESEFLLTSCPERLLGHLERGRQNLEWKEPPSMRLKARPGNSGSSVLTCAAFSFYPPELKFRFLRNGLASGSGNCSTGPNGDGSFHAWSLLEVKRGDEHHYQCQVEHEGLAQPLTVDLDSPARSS
Description for soluble CD20 (Genentech): As an additional comparison of the binding activity of 2H7 variants, an ELISA was performed with solubilized CD20.
Serial dilutions of samples in 0.5% BSA were incubated on the plates for 2 h. After washing, bound antibodies were detected with HRP-conjugated anti-human Fab antibody (Goat anti-human Ig, Fab′2-HRP conjugate, from NB) using 3,3′,5,5′-tetramethyl benzidine (Kirkegaard and Perry Laboratories, Gaithersburg, Md.) as substrate. Absorbance was read at 450 nm. Titration curves were fit with a four-parameter nonlinear regression curve-fitting program (KaleidaGraph; Synergy Software, Reading, Pa.). Concentrations of antibody variants corresponding to the midpoint absorbance of the titration curve of the standard were calculated.

The Kd is the constant that tells how readily two partners part at equilibrium. Read a high Kd as a looser complex. With parental hingeless Fc (wild-type), in the test with human FcRn (human) [1], the Kd worked out at 700 nM. In the test with human FcRn (human) [2], soluble Fc variant N434A registered a fold increase in affinity over wild-type Fc of 2.7 fold.

Consider soluble Fc variant N434A+E380A+T307A, for which the fold increase in affinity over wild-type Fc with human FcRn (human) [2] is 14 fold. Take soluble Fc variant N434F: in the test with human FcRn (human) [2], the fold increase in affinity over wild-type Fc worked out at 9 fold.

Regarding soluble Fc variant N434W, the fold better binding relative to wild-type Fc in the test with rat FcRn (rat) amounted to 10 fold. Moreover, the fold increase in affinity over wild-type Fc with human FcRn (human) [2] worked out at 170 fold. For the same molecule, the Kd in the test with human FcRn (human) [1] came to 4 nM.

B1: humanized 2H7.v511 (antibody, human IgG1, kappa)
heavy: EVQLVESGGGLVQPGGSLRLSCAASGYTFTSYNMHWVRQAPGKGLEWVGAIYPGNGATSYNQKFKGRFTISVDKSKNTLYLQMNSLRAEDTAVYYCARVVYYSYRYWYFDVWGQGTLVTVSSASTKGPSVFPLAPSSKSTSGGTAALGCLVKDYFPEPVTVSWNSGALTSGVHTFPAVLQSSGLYSLSSVVTVPSSSLGTQTYICNVNHKPSNTKVDKKVEPKSCDKTHTCPPCPAPELLGGPSVFLFPPKPKDTLMISRTPEVTCVVVDVSHEDPEVKFNWYVDGVEVHNAKTKPREEQYNATYRVVSVLTVLHQDWLNGKEYKCKVSNAALPAPIAATISKAKGQPREPQVYTLPPSREEMTKNQVSLTCLVKGFYPSDIAVEWESNGQPENNYKTTPPVLDSDGSFFLYSKLTVDKSRWQQGNVFSCSVMHEALHNHYTQKSLSLSPGK
light: DIQMTQSPSSLSASVGDRVTITCRASSSVSYLHWYQQKPGKAPKPLIYAPSNLASGVPSRFSGSGSGTDFTLTISSLQPEDFATYYCQQWAFNPPTFGQGTKVEIKRTVAAPSVFIFPPSDEQLKSGTASVVCLLNNFYPREAKVQWKVDNALQSGNSQESVTEQDSKDSTYSLSSTLTLSKADYEKHKVYACEVTHQGLSSPVTKSFNRGEC
notes: Full-length IgG1; VH D56A, N100Y, S100aR; VL M32L, S92A; Fc S298A, K326A, E333A, K334A vs v16; also called hu2H7.v511
The EC50 (read off the curve) is the concentration at which the effect is half-maximal. For the molecule B1, the Kd in test [3] amounted to 0.45 nM; in test [4], 0.11 nM. Also, in the test with soluble CD20 (Genentech), the “EC50 (read off the curve)” value was roughly 0.02 mg/L.

B2: humanized 2H7.v166 (antibody, human IgG1, kappa, V domains shown)
VH: EVQLVESGGGLVQPGGSLRLSCAASGYTFTSYNMHWVRQAPGKGLEWVGAIYPGNGDTSYNQKFKGRFTISVDKSKNTLYLQMNSLRAEDTAVYYCARVVYYGGDWYFDVWGQGTLVTVSS
VL: DIQMTQSPSSLSASVGDRVTITCRASSSVSYMHWYQQKPGKAPKPLIYAPSNLASGVPSRFSGSGSGTDFTLTISSLQPEDFATYYCQQWSFNPPTFGQGTKVEIKR
notes: IgG1; changes vs v16
B2: the Relative binding in test [5] worked out at 0.99 ratio.
